Results taken from US20140011728A1.

Biological target: IL-1 receptor expressed by INS-1 cells (rat (INS-1 cells are derived from a rat insulinoma)) (UniProt Q02955)

NO release: 6.56 µM
Substance: IL-1β (ligand)
